Test results from paper PMC6237740.

Experiments:
Experiment in all cases: fluorescence anisotropy competition
PU.1/Ets-1 S3 chimera = details: 0.1 mg/ml BSA, betaine to set osmolality (0.3 osm without stress), Cy3-DNA probe displaced by unlabeled DNA
PU.1/Ets-1 loop chimera = details: 10 mM TrisHCl pH 7.4, 0.15 M NaCl, 0.1 mg/ml BSA, betaine to set osmolality (0.3 osm without stress); Cy3-DNA probe displaced by unlabeled DNA; binding …
PU.1/Ets-1 H3 chimera = details: 10 mM TrisHCl pH 7.4, 0.15 M NaCl, 0.1 mg/ml BSA, betaine to set osmolality (0.3 osm without stress); Cy3-DNA probe displaced by unlabeled DNA; binding …
PU.1/Ets-1 wing chimera = details: 10 mM TrisHCl pH 7.4, 0.15 M NaCl, 0.1 mg/ml BSA, betaine to set osmolality (0.3 osm without stress); Cy3-DNA probe displaced by unlabeled DNA; binding …
PU.1/Ets-1 H2 chimera = details: 10 mM TrisHCl pH 7.4, 0.15 M NaCl, 0.1 mg/ml BSA, betaine to set osmolality (0.3 osm without stress); Cy3-DNA probe displaced by unlabeled DNA; binding …
[1] = test system: PU.1 ETS domain WT (PU.1ΔN167); details: 10 mM TrisHCl pH 7.4, 0.15 M NaCl, 0.1 mg/ml BSA, betaine to set osmolality (0.3 osm without stress), Cy3-DNA probe displaced by unlabeled DNA
[2] = test system: Ets-1 ETS domain WT (Mus musculus); details: normo-osmotic; 10 mM TrisHCl pH 7.4, 0.15 M NaCl, 0.1 mg/ml BSA, betaine to set osmolality (0.3 osm without stress); Cy3-DNA probe displaced by unlabeled DNA; binding …

Substance	Kd (PU.1/Ets-1 S3 chimera; 10 mM TrisHCl pH 7.4, 0.15 M NaCl, binding …)	Kd (PU.1/Ets-1 loop chimera)	Kd (PU.1/Ets-1 H3 chimera)	Kd (PU.1/Ets-1 wing chimera)	Kd (PU.1/Ets-1 H2 chimera)	Kd ([1]; binding …)	Kd [2]	binding signal (PU.1/Ets-1 S3 chimera; weaker than S3 chimera on N1, 10 mM TrisHCl pH 7.4, 0.15 M NaCl, scale: fold stronger than WT PU.1 on the same low-affinity DNA)	binding signal ([1]; may replot earlier WT data, scale: fold affinity vs S3 chimera on the same low-affinity DNA)
AGC high-affinity PU.1 site, 23-bp duplex	0.49 nM	1.3 nM	22 nM	1.6 nM	0.8 nM	0.34 nM	0.6 nM		
SC1 optimal Ets-1 site							0.17 nM		
low-affinity PU.1 site, 23-bp duplex								5	0.2
